Test [1] has as its target T1, wt EGFR overexpressed on the surface of A431 (A-431, human epidermoid carcinoma) cells (human, UniProt P00533 25-1210). The test is described as follows: cell-based or functional assay.
The target in test [2] is T1, wt EGFR overexpressed on the surface of …. The test is described as follows: cell-based or functional assay. This is another data set of the same source.
The target of test [3] is mutEGFR on NCI-H1650 (non-small cell lung cancer) cells (human). The test is described as follows: cell-based or functional assay.
The target of test [4] is T2, wild-type EGFR extra-cellular domain (ECD), EGFR (1-645)-LESRGPF-Myc-NMHTG-6His (human, UniProt P00533 25-645).
T2 construct: Recombinant soluble ECD secreted from HEK293 cells; also called hEGFR WT; EGFR(h)(1-645); not shown: Myc tag
The test can be described thus: SPR, Biacore T200, ADC captured by anti-Fc, EGFR ECD as analyte. As for the experimental part: (§1) Binding kinetics for AM2 and AM2-AAA for recombinant soluble EGFR extracellular domains (ECDs) were determined by surface plasmon resonance-based measurements made on a Biacore T200 instrument (GE Healthcare) at 25° C. using an anti-Fc capture assay approach. Recombinant soluble ECDs for the three isoforms of EGFR were expressed from transiently transfected HEK293 cells as secreted proteins with a C-terminal myc and histidine tag, and purified by Ni-IMAC (immobilized metal affinity chromatography) and SEC. […]
(§2) Chip preparation and binding kinetic measurements were made in the assay buffer HBS-EP+ (10 mM Hepes, pH 7.4, 150 mM NaCl, 3 mM EDTA, 0.05% Tween 20). […] For binding kinetics measurements each assay cycle consisted of the following steps: (1) capture of test antibody on test surface only; (2) analyte injection (EGFR ECD or buffer only) over both reference and test surface (240 μL at 80 μl/min), after which the dissociation was monitored for 900 seconds at 80 μl/min; (3) regeneration of the capture surface by 10 mM Glycine-HCl, pH 1.5 injections over both reference and test surface. […]

Test [5] concerns the target T3, EGFRvIII (hEGFR de2-7) [EGFR(H)(1-29)-G-(298-645)], EGFR(h)(1-29)-G-(298-645)-LESRGPF-Myc-NMHTG-6His (human, UniProt P00533 298-645).
T3 construct: Recombinant soluble ECD secreted from HEK293 cells; not shown: Myc tag
The test can be described thus: SPR, Biacore T200, 25 C, anti-Fc capture of ADC, EGFR ECD as analyte, 1:1 model. As for the experimental part:
(§3) Binding kinetics for AM2 and AM2-AAA for recombinant soluble EGFR extracellular domains (ECDs) were determined by surface plasmon resonance-based measurements made on a Biacore T200 instrument (GE Healthcare) at 25° C. using an anti-Fc capture assay approach. Recombinant soluble ECDs for the three isoforms of EGFR were expressed from transiently transfected HEK293 cells as secreted proteins with a C-terminal myc and histidine tag, and purified by Ni-IMAC (immobilized metal affinity chromatography) and SEC. In particular, the EGFR ECD tested included amino acids 1-645 of EGFR fused to a myc and histidine tag [(EGFR (1-645)-LESRGPF-Myc-NMHTG-6His (“LESRGPF” (SEQ ID NO: 27))]. The EGFRvIII variant was also fused to a myc and histidine tag (EGFR(h)(1-29)-G-(298-645)-LESRGPF-Myc-NMHTG-6His), as was the ECD EGFR 1-525 [EGFR1(h)(1-525)]-LESRGPF-Myc-NMHTG-6His (“LESRGPF” (SEQ ID NO: 28))]. All ECDs were expressed with the signal sequence […] which was cleaved during secretion.
(§4) Chip preparation and binding kinetic measurements were made in the assay buffer HBS-EP+ (10 mM Hepes, pH 7.4, 150 mM NaCl, 3 mM EDTA, 0.05% Tween 20). For anti-Fc capture chip preparation, approximately 2000 RU of goat anti-human IgG Fc polyclonal antibody (Thermo Fisher Scientific Inc., cat. 31125), diluted to 25 μg/mL in 10 mM sodium acetate (pH 4.5) was directly immobilized across a CM5 biosensor chip using a standard amine coupling kit according to manufacturer's instructions and procedures (GE Healthcare). Unreacted moieties on the biosensor surface were blocked with ethanolamine. For binding kinetics measurements each assay cycle consisted of the following steps: (1) capture of test antibody on test surface only; (2) analyte injection (EGFR ECD or buffer only) over both reference and test surface (240 μL at 80 μl/min), after which the dissociation was monitored for 900 seconds at 80 μl/min; (3) regeneration of the capture surface by 10 mM Glycine-HCl, pH 1.5 injections over both reference and test surface.
(§5) For kinetic determinations, analytes were randomized 3-fold dilution series from 3 uM top dose. During the assay, all measurements were referenced against the capture surface alone (i.e., with no captured test antibody) and buffer-only injections were used for secondary referencing.

Test [6] addresses T4, truncated wild-type EGFR 1-525, [EGFR1(h)(1-525)]-LESRGPF-Myc-NMHTG-6His (human, UniProt P00533 25-525).
T4 construct: Recombinant soluble truncated ECD secreted from HEK293 cells; also called EGFRs1-501; ECD EGFR 1-525; not shown: Myc tag
The test is described as above. On the procedure:
as §3, §4, §5

Test [7] addresses T1, wt EGFR overexpressed on the surface of …. The test can be described thus: FACS on A-431 cells, 1 h at 4 C, AlexaFluor 488 secondary antibody, geometric mean fluorescence. As for the experimental part:
To assay binding of AM2-AAA to cell surface overexpressed wt EGFR and to mutant forms of EGFR including the activating mutations found in NSCLC (mutEGFR), tumor cells overexpressing wt EGFR (A431) and mutEGFR (NCI-H1650) were assessed by fluorescence activated cell sorting (FACS).
Cells were harvested from flasks when at approximately 1.5×10⁶ cells/mL. Cells were washed once in PBS/1% FBS (FACS buffer) then resuspended at 2.5×10⁶ cells/mL in FACS buffer. 50 μL of cells were added to a round bottom 96-well plate. 50 μL of a 2× concentration of mAb/ADC (final concentrations are indicated in the figures) was added to wells and the plate was incubated at 4° C. for one hour. The cells were washed twice in FACS buffer and resuspended in 50 μL of a 1:100 dilution of secondary Ab (AlexaFluor 488, Invitrogen, 11013) diluted in FACS buffer. The plate was incubated at 4° C. for one hour and washed twice with FACS buffer. Cells were resuspended in 100 μL of PBS/1% formaldehyde and analyzed on a Becton Dickinson FACSCanto II flow cytometer. Data was analyzed using WinList flow cytometry analysis software.

Test [8] deals with T2, wild-type EGFR extra-cellular domain …. The test is described as follows: SPR, Biacore T200, antibody captured by anti-Fc, EGFR ECD as analyte. On the procedure: as §1, §2
The target in test [9] is T3, EGFRvIII (hEGFR de2-7) …. The test is described as follows: SPR, Biacore T200, 25 C, anti-Fc capture of antibody, EGFR ECD as analyte, 1:1 model. As for the experimental part:
as §3, §4, §5

The target of test [10] is T4, truncated wild-type EGFR 1-525, …. The description is as above. On the procedure: as §3, §4, §5

B1: AM2-AAA ADC (antibody, human IgG1, kappa, L234A L235A, DAR 2, V domains shown)
VH: EVQLQESGPGLVKPSQTLSLTCTVSGYSISNDFAWNWIRQPPGKGLEWMGYISYKGNTRYQPSLKSRITISRDTSKNQFFLKLNSVTAADTATYYCVTASRGFPWWGQGTLVTVSS
VL: DIQMTQSPSSMSVSVGDRVTITCHSSQDINSNIGWLQQKPGKSFKGLIYHGTNLDDGVPSRFSGSGSGTDYTLTISSLQPEDFATYYCVQYAQFPWTFGGGTKLEIKR
modifications: AAA synthon (Bcl-xL inhibitor drug-linker) conjugated through C220 of the heavy chain (i.e., C219 of SEQ ID NO: 1); average DAR 2
notes: Antibody-drug conjugate: the AM2 antibody conjugated to the AAA synthon, average DAR 2; The conjugation site (C220) is stated only in the summary and embodiments
With B1, in test [1], the “IC50 (read off the curve), % Bim bound to BCL-xl in A-431 cells” value was ~3 nM. Further, the “EC50 (read off the curve), caspase 3/7 activity fold change in A431 cells” value in test [2] is ~7 nM. For the same molecule, the “IC50 (read off the curve), % Bim bound to BCL-xl in NCI-H1650 cells” value in test [3] is ~20 nM. For the same molecule, in [4], the binding result is reported as “no binding (tested: 3 µM top dose)”. In test [5], this molecule had a Kd of 4.9 nM, a koff of 0.00017 s⁻¹ and a kon of 35000 M⁻¹ s⁻¹. In test [6], the Kd was 400 nM, the koff came to 0.0012 s⁻¹ and the kon was 2900 M⁻¹ s⁻¹. Besides, the 50% effective concentration (EC50 (read off the curve)) in test [7] was ~100 nM.

B2: AM2 antibody (antibody, human IgG1, kappa, L234A L235A, V domains shown)
VH: B1 VH
VL: B1 VL
notes: Humanized IgG1, z,a allotype, with the LALA mutation (L234A, L235A) and LC:C214A (C6v1); Expressed in HEK293 cells; also called EGFR AM2 antibody
On to B2, for which the binding result in [8] is “no binding (tested: 3 µM top dose)”. In test [9], this molecule showed a Kd of 5 nM, a koff of 0.00017 s⁻¹ and a kon of 33000 M⁻¹ s⁻¹. In [10], this molecule displayed a dissociation constant Kd of 420 nM, an off-rate (koff) of 0.0012 s⁻¹ and an association rate constant (kon) of 2800 M⁻¹ s⁻¹. The “EC50 (read off the curve)” value in test [7] is ~80 nM.
